One molecule from patent US20130156786A1 (Sanofi, published 2013) can be followed below.

Assay [1] deals with T1, α2 integrin on HUVEC cells.
T1 construct: The sheet names no target; also called HUVEC cells (promocell C12200, lot 6062203)
The assay is described as follows: Scatchard plot (B/F against B (RLU)) of MesoScale electrochemiluminescence binding to HUVEC cells coated on plates; drawn table: SD 0.01291, CV(%) 6.0, 95%CI [0.1899; 0.2425]. Here is the method:
(§1) To further assess the binding properties of the anti-α2 integrin mAb, a cell based assay with HUVEC cells (promocell C12200, lot 6062203) was performed. Cells were coated onto high binding plates (Meso Scale Discovery (MSD), L15XB-3) in PBS (10.000 cells/well) and incubated for 2 hrs at room temperature. Then the plates were emptied, washed twice with PBS and blocked with blocking solution (MSD, R93BA-4) for 90 min. After emptying and washing the plates again as described above, serial dilutions of anti α2-mAb were added and incubated with the cells for 1 h at room temperature. Following another washing step as above Read buffer T without surfactant (Meso scale Discovery, R92TD-2) was added. Electrochemilumenescence was read in a suitable device (Meso scale Discovery, Sector imager). Scatchard plot analysis was used to determine KD of the tested mAbs (see FIG. 1).

In assay [2] the target is T2, rat α2β1 integrin (whole blood) (rat, UniProt A0A0G2K470 27-1178; P49134 21-798).
T2 construct: whole, on cells
T2 sequence (chain, as listed by the source, chain 1 of 2): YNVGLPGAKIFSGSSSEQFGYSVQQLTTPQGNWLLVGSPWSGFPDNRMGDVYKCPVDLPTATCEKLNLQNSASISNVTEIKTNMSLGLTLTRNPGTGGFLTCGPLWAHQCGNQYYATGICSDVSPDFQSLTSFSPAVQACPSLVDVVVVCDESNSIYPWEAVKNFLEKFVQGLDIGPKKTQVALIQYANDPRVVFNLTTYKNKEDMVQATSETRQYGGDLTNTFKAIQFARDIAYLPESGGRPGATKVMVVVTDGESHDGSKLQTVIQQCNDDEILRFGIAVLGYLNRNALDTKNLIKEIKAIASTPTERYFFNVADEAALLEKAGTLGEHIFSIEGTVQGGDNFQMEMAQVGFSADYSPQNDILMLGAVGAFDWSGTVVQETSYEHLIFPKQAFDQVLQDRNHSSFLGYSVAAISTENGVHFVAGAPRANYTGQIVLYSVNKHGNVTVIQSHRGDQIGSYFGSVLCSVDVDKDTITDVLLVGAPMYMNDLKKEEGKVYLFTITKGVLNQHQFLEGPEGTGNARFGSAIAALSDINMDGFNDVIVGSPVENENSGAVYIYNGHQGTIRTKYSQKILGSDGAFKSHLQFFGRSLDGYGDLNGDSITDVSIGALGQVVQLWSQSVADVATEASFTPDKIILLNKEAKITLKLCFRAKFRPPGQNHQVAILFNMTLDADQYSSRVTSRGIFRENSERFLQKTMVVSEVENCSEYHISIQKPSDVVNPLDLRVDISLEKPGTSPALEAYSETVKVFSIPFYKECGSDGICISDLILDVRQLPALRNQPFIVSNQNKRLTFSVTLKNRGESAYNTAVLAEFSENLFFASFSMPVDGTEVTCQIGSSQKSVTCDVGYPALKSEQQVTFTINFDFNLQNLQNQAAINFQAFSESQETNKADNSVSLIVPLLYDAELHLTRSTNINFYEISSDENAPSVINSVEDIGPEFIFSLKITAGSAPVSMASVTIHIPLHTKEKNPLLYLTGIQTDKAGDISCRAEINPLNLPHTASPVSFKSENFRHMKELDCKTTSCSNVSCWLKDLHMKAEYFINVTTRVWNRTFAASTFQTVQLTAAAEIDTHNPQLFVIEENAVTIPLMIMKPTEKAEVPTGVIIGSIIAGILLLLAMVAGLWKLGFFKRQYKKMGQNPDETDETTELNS
T2 sequence (P49134 21-798, chain 2 of 2): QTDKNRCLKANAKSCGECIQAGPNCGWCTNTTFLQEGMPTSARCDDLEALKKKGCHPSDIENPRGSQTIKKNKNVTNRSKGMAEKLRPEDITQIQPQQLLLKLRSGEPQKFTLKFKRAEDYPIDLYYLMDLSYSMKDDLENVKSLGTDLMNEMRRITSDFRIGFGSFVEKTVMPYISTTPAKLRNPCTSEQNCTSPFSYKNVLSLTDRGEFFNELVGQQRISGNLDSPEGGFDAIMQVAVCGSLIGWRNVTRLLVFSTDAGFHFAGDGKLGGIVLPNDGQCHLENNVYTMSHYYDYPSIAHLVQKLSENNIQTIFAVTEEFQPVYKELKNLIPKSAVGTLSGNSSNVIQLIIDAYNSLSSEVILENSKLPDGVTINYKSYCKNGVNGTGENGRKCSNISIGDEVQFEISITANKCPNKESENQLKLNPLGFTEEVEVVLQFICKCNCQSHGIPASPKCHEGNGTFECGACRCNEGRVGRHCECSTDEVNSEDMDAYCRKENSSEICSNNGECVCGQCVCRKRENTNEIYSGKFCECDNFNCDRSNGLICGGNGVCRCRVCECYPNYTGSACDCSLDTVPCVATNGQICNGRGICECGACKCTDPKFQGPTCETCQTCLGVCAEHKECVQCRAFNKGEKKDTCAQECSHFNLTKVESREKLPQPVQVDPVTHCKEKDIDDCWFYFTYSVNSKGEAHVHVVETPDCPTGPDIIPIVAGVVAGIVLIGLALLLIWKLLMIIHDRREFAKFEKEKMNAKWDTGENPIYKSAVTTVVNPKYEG
Kind of assay: FACS on whole blood, PE-coupled goat anti-mouse IgG.

Assay [3] deals with rabbit α2β1 integrin (whole blood) (rabbit, UniProt G1T180 31-1185; A0A5F9C3C4 21-798). The assay is described as above.
Assay [4] addresses T3, mouse α2β1 integrin (whole blood) (mouse, UniProt Q62469 27-1178; P09055 21-798).
T3 construct: whole, on cells
Described as above.

In assay [5] the target is dog α2β1 integrin (whole blood) (dog). The description is as above.
Assay [6] deals with T1, α2 integrin on HUVEC cells. The assay is described as follows: MesoScale electrochemiluminescence binding to HUVEC cells coated on plates, serial dilutions of the mAb. Here is the method: as §1

As usually defined, the Kd is a measure of binding affinity in units of concentration. High values mean weaker binding, low ones tighter binding. The term EC50 (read off the curve) denotes the midpoint of the concentration-response curve. The low end stands for an effect from little substance, the high end for a need for much substance.

T1 sequence (alpha, as listed by the source limits assumed): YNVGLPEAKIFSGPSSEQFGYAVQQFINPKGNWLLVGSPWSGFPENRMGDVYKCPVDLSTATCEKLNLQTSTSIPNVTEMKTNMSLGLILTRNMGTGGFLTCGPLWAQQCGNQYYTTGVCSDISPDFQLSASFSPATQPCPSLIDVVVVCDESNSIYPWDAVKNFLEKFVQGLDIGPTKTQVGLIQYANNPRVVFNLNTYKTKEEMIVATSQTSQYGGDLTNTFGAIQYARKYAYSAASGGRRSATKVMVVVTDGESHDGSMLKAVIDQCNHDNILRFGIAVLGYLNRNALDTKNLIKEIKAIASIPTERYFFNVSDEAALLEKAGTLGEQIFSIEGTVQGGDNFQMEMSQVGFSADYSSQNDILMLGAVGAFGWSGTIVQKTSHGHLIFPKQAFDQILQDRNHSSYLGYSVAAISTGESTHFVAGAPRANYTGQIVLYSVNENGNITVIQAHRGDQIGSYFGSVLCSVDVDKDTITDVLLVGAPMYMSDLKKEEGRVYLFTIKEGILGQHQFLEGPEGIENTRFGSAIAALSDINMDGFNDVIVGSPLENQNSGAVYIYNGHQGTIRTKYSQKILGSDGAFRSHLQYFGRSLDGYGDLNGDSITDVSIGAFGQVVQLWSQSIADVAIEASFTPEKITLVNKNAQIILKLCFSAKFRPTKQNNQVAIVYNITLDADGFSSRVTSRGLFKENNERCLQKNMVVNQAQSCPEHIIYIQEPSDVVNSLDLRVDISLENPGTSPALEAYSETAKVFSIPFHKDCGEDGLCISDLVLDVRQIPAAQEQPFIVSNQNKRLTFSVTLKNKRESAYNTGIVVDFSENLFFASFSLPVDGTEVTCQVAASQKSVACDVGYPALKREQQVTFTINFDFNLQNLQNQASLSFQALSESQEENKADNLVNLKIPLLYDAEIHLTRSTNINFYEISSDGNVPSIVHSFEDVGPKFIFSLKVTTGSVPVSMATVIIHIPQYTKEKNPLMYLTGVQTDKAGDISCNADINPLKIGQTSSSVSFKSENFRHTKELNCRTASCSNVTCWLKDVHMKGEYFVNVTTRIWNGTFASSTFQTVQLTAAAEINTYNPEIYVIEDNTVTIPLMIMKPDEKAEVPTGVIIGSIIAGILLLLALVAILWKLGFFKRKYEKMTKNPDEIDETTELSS
T3 sequence (Q62469 27-1178, chain 1 of 2): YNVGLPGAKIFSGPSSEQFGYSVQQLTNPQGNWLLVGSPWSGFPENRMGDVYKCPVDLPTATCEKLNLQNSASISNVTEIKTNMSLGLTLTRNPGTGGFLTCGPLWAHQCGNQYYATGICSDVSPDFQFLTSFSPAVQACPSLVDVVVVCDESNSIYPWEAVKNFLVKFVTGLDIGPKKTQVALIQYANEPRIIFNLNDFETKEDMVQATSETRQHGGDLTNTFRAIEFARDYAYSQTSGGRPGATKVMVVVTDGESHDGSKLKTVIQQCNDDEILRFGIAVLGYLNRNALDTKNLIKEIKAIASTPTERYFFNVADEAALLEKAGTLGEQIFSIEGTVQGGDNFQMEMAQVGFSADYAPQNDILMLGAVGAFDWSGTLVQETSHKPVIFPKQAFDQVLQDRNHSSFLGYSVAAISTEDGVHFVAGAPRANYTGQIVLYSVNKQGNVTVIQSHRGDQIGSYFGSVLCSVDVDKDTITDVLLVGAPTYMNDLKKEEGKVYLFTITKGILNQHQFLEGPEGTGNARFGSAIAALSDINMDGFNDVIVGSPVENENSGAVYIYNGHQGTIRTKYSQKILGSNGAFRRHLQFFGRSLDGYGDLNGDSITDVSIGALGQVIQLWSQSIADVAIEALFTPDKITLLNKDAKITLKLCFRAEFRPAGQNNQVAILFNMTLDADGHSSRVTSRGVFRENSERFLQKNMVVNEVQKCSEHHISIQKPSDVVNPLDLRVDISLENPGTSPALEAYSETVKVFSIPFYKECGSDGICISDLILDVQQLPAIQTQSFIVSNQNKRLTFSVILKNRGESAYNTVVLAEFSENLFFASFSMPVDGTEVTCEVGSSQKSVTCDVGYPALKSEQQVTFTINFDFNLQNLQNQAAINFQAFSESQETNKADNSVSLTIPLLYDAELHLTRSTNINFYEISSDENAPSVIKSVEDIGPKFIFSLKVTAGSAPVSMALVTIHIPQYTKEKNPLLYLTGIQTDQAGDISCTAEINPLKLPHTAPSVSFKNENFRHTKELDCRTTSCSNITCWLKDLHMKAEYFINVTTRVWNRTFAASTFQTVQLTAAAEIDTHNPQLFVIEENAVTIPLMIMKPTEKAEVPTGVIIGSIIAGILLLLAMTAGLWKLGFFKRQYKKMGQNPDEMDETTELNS
T3 sequence (P09055 21-798, chain 2 of 2): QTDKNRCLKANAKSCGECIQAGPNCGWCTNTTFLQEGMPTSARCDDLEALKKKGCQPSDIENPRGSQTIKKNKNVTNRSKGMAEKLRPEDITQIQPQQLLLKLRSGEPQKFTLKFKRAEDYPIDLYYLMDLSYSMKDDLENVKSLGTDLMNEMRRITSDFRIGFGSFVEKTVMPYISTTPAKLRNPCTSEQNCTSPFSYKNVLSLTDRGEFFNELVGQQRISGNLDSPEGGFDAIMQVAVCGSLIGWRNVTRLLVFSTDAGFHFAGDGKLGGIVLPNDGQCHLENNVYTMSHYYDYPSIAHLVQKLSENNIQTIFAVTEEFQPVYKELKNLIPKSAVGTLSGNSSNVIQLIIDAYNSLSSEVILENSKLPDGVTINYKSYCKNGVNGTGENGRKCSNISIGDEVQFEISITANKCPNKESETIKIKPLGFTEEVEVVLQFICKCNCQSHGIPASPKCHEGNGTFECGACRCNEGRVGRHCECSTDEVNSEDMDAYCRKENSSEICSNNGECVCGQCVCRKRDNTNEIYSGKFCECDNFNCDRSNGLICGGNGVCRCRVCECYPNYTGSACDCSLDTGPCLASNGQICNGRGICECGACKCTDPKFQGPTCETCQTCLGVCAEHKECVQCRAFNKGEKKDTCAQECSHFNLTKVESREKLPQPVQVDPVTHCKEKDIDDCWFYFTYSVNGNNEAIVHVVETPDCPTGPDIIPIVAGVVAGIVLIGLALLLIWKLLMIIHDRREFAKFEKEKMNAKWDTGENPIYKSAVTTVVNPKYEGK

B1: anti-α2 integrin mAb purified from hybridoma supernatant (murine, mCk, mIgG2a) (antibody)
heavy: QVQLHQPGAELVKPGAPVKLSCKASGYTFTSYWMNWVKQRPGRGLEWIGRIDPSDSETHYNQKFKDKATLTVDKSSSTAYIQLSSLTSEDSAVYYCAKVGRGYFDYWGQGTTLTVSSAKTTAPSVYPLAPVCGDTTGSSVTLGCLVKGYFPEPVTLTWNSGSLSSGVHTFPAVLQSDLYTLSSSVTVTSSTWPSQSITCNVAHPASSTKVDKKIEPRGPTIKPCPPCKCPAPNLLGGPSVFIFPPKIKDVLMISLSPIVTCVVVDVSEDDPDVQISWFVNNVEVHTAQTQTHREDYNSTLRVVSALPIQHQDWMSGKEFKCKVNNKDLPAPIERTISKPKGSVRAPQVYVLPPPEEEMTKKQVTLTCMVTDFMPEDIYVEWTNNGKTELNYKNTEPVLDSDGSYFMYSKLRVEKKNWVERNSYSCSVVHEGLHNHHTTKSFSRTPGK
light: NIVLTQSPASLAVSLGQRATISCRASESVESYGNSFIYWYQQKPGQAPKLLIYLASNLASGVPARFSGSGSRTDFTLTIDPVEADDAATYYCQQNNEDPYTFGGGTKLEIKRADAAPTVSIFPPSSEQLTSGGASVVCFLNNFYPKDINVKWKIDGSERQNGVLNSWTDQDSKDSTYSMSSTLTLTKDEYERHNSYTCEATHKTSTSPIVKSFNRNEC
notes: also called α2-integrin mAb from hybridoma; α2 mAb from hybridoma supernatant
B1 gave a Kd in assay [1] of 215 pM. For the same molecule, the binding result in assay [2], in assay [3], in assay [4] and in assay [5] was “no binding” in each case. For the same molecule, the “EC50 (read off the curve)” value in assay [6] is about 200 pM.
